Measured values: the FLAb antibody collection (doi:10.7554/elife.23156)

B1: scFv; the commonest letter at each place (parent)
chain 1: EVKLDETGGGLVQPGRPMKLSCVASGFTFSDYWMNWVRQSPEKGLEWVAQIRNKPYNYETYYSDSVKGRFTISRDDSKSSVYLQMNNLRVEDMGIYYCTGSYYGMDYWGQGTSVTVS
chain 2: DVVMTQTPLSLPVSLGDQASISCRSSQSLVHSNGNTYLRWYLQKPGQSPKVLIYKVSNRFSGVPDRFSGSGSGTDFTLKISRVEAEDLGVYFCSQSTHVPWTFGGGTKLEIK

Experiments:
[1] = variants of: B1; experiment: Kd (Tite-Seq); conditions: with fluorescein; format: scFv 4-4-20, heavy + light
[2] = variants of: B1; experiment: yeast surface expression (ratio to wild type); higher = more expressed; conditions: format: scFv 4-4-20, heavy + light

Row | Variant | Kd [1] | yeast surface expression [2]
1 | chain 1 EVKLDETGGGLVQPGRPMKLSCVASGFTFSDYWMNWVRQSPEKGLEWVAQIRNKPYNYETYYSDSVKGRFTISRDDSKSSVYLQMNNLRVEDMGIYYCTGSYYGMDMWKQGTSVTVS chain 2 DVVMTQTPLSLPVSLGDQASISCRSSQSLVHSNGNTYLRWYLQKPGQSPKVLIYKVSNRFSGVPDRFSGSGSGTDFTLKISRVEAEDLGVYFCSQSTHVPWTFGGGTKLEIK [chain 1 Y107M G109K] | ≥ 10 µM | 0.42
2 | chain 1 EVKLDETGGGLVQPGRPMKLSCVASGFTFSDYWMNWVRQSPEKGLEWVAQIRNKPYNYETYYSDSVKGRFTISRDDSKSSVYLQMNNLRVEDMGIYYCTGSYTQMDYWGQGTSVTVS chain 2 DVVMTQTPLSLPVSLGDQASISCRSSQSLVHSNGNTYLRWYLQKPGQSPKVLIYKVSNRFSGVPDRFSGSGSGTDFTLKISRVEAEDLGVYFCSQSTHVPWTFGGGTKLEIK [chain 1 Y103T G104Q] | ≥ 10 µM | 0.9
3 | chain 1 EVKLDETGGGLVQPGRPMKLSCVASGFTFSDYWMNWVRQSPEKGLEWVAQIRNKPYNYETYYSDSVKGRFTISRDDSKSSVYLQMNNLRVEDMGIYYCTGSYYGMLYRYQGTSVTVS chain 2 DVVMTQTPLSLPVSLGDQASISCRSSQSLVHSNGNTYLRWYLQKPGQSPKVLIYKVSNRFSGVPDRFSGSGSGTDFTLKISRVEAEDLGVYFCSQSTHVPWTFGGGTKLEIK [chain 1 D106L W108R G109Y] | ≥ 10 µM | 0.0998
4 | chain 1 EVKLDETGGGLVQPGRPMKLSCVASGFTFFDYWMTWVRQSPEKGLEWVAQIRNKPYNYETYYSDSVKGRFTISRDDSKSSVYLQMNNLRVEDMGIYYCTGSYYGMDYWGQGTSVTVS chain 2 DVVMTQTPLSLPVSLGDQASISCRSSQSLVHSNGNTYLRWYLQKPGQSPKVLIYKVSNRFSGVPDRFSGSGSGTDFTLKISRVEAEDLGVYFCSQSTHVPWTFGGGTKLEIK [chain 1 S30F N35T] | ≥ 10 µM | 0.588
5 | chain 1 EVKLDETGGGLVQPGRPMKLSCVASGFTFSDYWMNWVRQSPEKGLEWVAQIRNKPYNYETYYSDSVKGRFTISRDDSKSSVYLQMNNLRVEDMGIYYCTGSYYGMPYKGQGTSVTVS chain 2 DVVMTQTPLSLPVSLGDQASISCRSSQSLVHSNGNTYLRWYLQKPGQSPKVLIYKVSNRFSGVPDRFSGSGSGTDFTLKISRVEAEDLGVYFCSQSTHVPWTFGGGTKLEIK [chain 1 D106P W108K] | ≥ 10 µM | 0.407
6 | chain 1 EVKLDETGGGLVQPGRPMKLSCVASGFTFSDYWMNWVRQSPEKGLEWVAQIRNKPYNYETYYSDSVKGRFTISRDDSKSSVYLQMNNLRVEDMGIYYCTASRYGMDYWCQGTSVTVS chain 2 DVVMTQTPLSLPVSLGDQASISCRSSQSLVHSNGNTYLRWYLQKPGQSPKVLIYKVSNRFSGVPDRFSGSGSGTDFTLKISRVEAEDLGVYFCSQSTHVPWTFGGGTKLEIK [chain 1 G100A Y102R G109C] | ≥ 10 µM | 0.266
7 | chain 1 EVKLDETGGGLVQPGRPMKLSCVASGFTFSDYWMNWVRQSPEKGLEWVAQIRNKPYNYETYYSDSVKGRFTISRDDSKSSVYLQMNNLRVEDMGIYYCTGSFIGMDYWGQGTSVTVS chain 2 DVVMTQTPLSLPVSLGDQASISCRSSQSLVHSNGNTYLRWYLQKPGQSPKVLIYKVSNRFSGVPDRFSGSGSGTDFTLKISRVEAEDLGVYFCSQSTHVPWTFGGGTKLEIK [chain 1 Y102F Y103I] | 0.0729 µM | 0.793
8 | chain 1 EVKLDETGGGLVQPGRPMKLSCVASGFTFSDYWMNKNRQSPEKGLEWVAQIRNKPYNYETYYSDSVKGRFTISRDDSKSSVYLQMNNLRVEDMGIYYCTGSYYGMDYWGQGTSVTVS chain 2 DVVMTQTPLSLPVSLGDQASISCRSSQSLVHSNGNTYLRWYLQKPGQSPKVLIYKVSNRFSGVPDRFSGSGSGTDFTLKISRVEAEDLGVYFCSQSTHVPWTFGGGTKLEIK [chain 1 W36K V37N] | 0.0592 µM | 0.168
9 | chain 1 EVKLDETGGGLVQPGRPMKLSCVASGFTFSDYWMNWVRQSPEKGLEWVAQIRNKPYNYETYYSDSVKGRFTISRDDSKSSVYLQMNNLRVEDMGIYYCTGSYYGMDWWKQGTSVTVS chain 2 DVVMTQTPLSLPVSLGDQASISCRSSQSLVHSNGNTYLRWYLQKPGQSPKVLIYKVSNRFSGVPDRFSGSGSGTDFTLKISRVEAEDLGVYFCSQSTHVPWTFGGGTKLEIK [chain 1 Y107W G109K] | ≥ 10 µM | 0.336
10 | chain 1 EVKLDETGGGLVQPGRPMKLSCVASGFFFSDYWANWVRQSPEKGLEWVAQIRNKPYNYETYYSDSVKGRFTISRDDSKSSVYLQMNNLRVEDMGIYYCTGSYYGMDYWGQGTSVTVS chain 2 DVVMTQTPLSLPVSLGDQASISCRSSQSLVHSNGNTYLRWYLQKPGQSPKVLIYKVSNRFSGVPDRFSGSGSGTDFTLKISRVEAEDLGVYFCSQSTHVPWTFGGGTKLEIK [chain 1 T28F M34A] | 0.0189 µM | 0.566
11 | chain 1 EVKLDETGGGLVQPGRPMKLSCVASGFTFSDYWMNWVRQSPEKGLEWVAQIRNKPYNYETYYSDSVKGRFTISRDDSKSSVYLQMNNLRVEDMGIYYCTGSYYGMDDWGQGTSVTVS chain 2 DVVMTQTPLSLPVSLGDQASISCRSSQSLVHSNGNTYLRWYLQKPGQSPKVLIYKVSNRFSGVPDRFSGSGSGTDFTLKISRVEAEDLGVYFCSQSTHVPWTFGGGTKLEIK [chain 1 Y107D] | 7.72 µM | 0.779
12 | chain 1 EVKLDETGGGLVQPGRPMKLSCVASGFTFSDYWMNWVRQSPEKGLEWVAQIRNKPYNYETYYSDSVKGRFTISRDDSKSSVYLQMNNLRVEDMGIYYCTGTYPGMDYWGQGTSVTVS chain 2 DVVMTQTPLSLPVSLGDQASISCRSSQSLVHSNGNTYLRWYLQKPGQSPKVLIYKVSNRFSGVPDRFSGSGSGTDFTLKISRVEAEDLGVYFCSQSTHVPWTFGGGTKLEIK [chain 1 S101T Y103P] | ≥ 10 µM | 0.643
